Values joined by “and” are separate entries in the source; they are usually repeats but may differ in a detail not shown here. Equal values may be shown once. Read-outs that look alike come from different tables or passages of the source.
Columns and labels:
[1] = PK of regular human insulin (NOVOLIN R) after SC or intra-jejunal jet delivery, blood insulin levels; format: in vivo, swine; conditions: for Cmax / Tmax: IJ administration by jet delivery device, blood insulin
Description: A total of 18 Yorkshire female swine in good health and weighing 60-70 kg each were included in this study. Swine were divided into two groups with 9 animals per group. […] A sham surgical laparotomy was performed. […] The jet delivery device was configured with the single nozzle in an axial orientation.
Swine were divided into two groups with 9 animals per group. […] In all 18 animals, a laparotomy procedure was performed to expose the abdominal cavity. Animals remained under anesthesia during the entire procedure for the PK/PD study.
For the laparotomy in group 02, a small segment of the jejunal mucosa and serosa was exposed by midline laparotomy and the jet delivery device was inserted through antimesenteric incision.
(§1) Blood samples were kept on wet ice until centrifugation and separation of plasma. […] Glucose was monitored every five (5) minutes during the study by portable glucose analyzer (StatStrip (SS) hospital glucose monitoring system (Nova Biomedical, Waltham, MA)). At each time point, approximate 0.1 mL of blood was drawn and immediately placed on a glucose monitoring test strip, and the whole blood glucose concentration was measured by the SS in triplicate.
The animals were anesthetized for the entire ECP.

[2] = test system: blood glucose; test: Euglycemic clamp procedure: blood glucose and dextrose infusion rate after NOVOLIN R; format: in vivo, swine; conditions: for mean blood glucose level: euglycemic clamp
Description: as §1
A euglycemic clamp procedure (ECP) was employed to compare pharmacokinetics and pharmacodynamics of regular human Insulin (NOVOLIN® R) delivered subcutaneously (SC) in the neck versus intra-jejunally (IJ) by the jet delivery device in the small intestine. ECP was used to quantify the amount of glucose required to maintain normoglycemia after exogenous bolus of insulin. […] The animals were anesthetized for the entire ECP.

[3] = Non-reducing SDS-PAGE protein profile of jet-dispensed adalimumab (drug structure); format: physicochemical
Description: The purpose of this study was to evaluate the effects that nozzle geometry and delivery pressure have on drug structure when the drug is dispensed from a jet delivery device using different delivery pressures and nozzle sizes. Structural changes in the jet-delivered drug could potentially result in compromised functioning of the drug in vitro.
The drug (adalimumab drug substance (DS)) was loaded into the simulated capsule jet delivery device and ejected using different pressures and nozzle geometries.
The resulting protein concentrations were obtained using an extinction coefficient of 1.4 and Gen5 version 3.03.14 program. The samples were then diluted and the protein profiles were analyzed using non-reducing SDS-PAGE. Protein banding patterns of the dispensed samples were compared to that of the unmanipulated drug and the drug artificially damaged (enzymatically degraded) via the papain in a commercial Fab fragmentation kit (Pierce™ Fab Preparation Kit).
For gel analysis, protein was mixed with non-reducing sample buffer. Samples were not heated. 5 μg of samples and controls were loaded per lane of a SDS-PAGE gel (4% Acrylamide-Bis stacking, 12% resolving; see Table 26). The gel was electrophoresed at 195 V and stained in R-250 Coomassie Blue dye.

[4] = Adalimumab plasma PK after ID (2-nozzle jet delivery device), SC or IV administration; format: in vivo, female Yorkshire pigs (Sus scrofa domesticus)
Description: A total of 21 healthy female Yorkshire pigs (Sus scrofa domesticus) having a body weight of 25-30 kg were used in this study. Five (N=5) were used in each of dose Groups 1-3 (intraduodenal (ID) administration via an endoscopically placed ingestible device), and three (N=3) were used in each of dose Group 4 (SC administration) and dose Group 5 (IV administration). The study design is shown below in Table 16.
Animals were housed two per cage and fasted for a minimum of 12 hours prior to dosing. Food was returned at 4 hours post-dose. Water was supplied ad libitum. The dosing was as follows: Dose day 1: group 1 (n=3), and group 3 (n=2); Dose day 2: group 2 (n=3), and group 1 (n=2); Dose day 3: group 3 (n=3), and group 2 (n=2); Dose day 4: groups 4 (n=3), and group 5 (n=3). Following the 240-hour post-dose blood collection the animal was euthanized via euthanasia solution IV bolus dose.
For subcutaneous (SC) administration, animals were placed in dorsal recumbence and the SC injection site asceptically prepared with alcohol. The test article was administered as an SC injection into a “skin tent” on the belly of the pig.
(§2) Each blood sample was collected from the pig jugular vein, or other suitable vessel via direct venipuncture, placed into a chilled tube containing K2-EDTA as the anticoagulant, and inverted several times to mix. Blood samples were kept on wet ice until centrifugation. […] Plasma was collected into pre-labeled polypropylene tubes and placed in a freezer set to maintain −60 to −80° C. prior to analysis.
All plasma samples were diluted by 1:100 dilution. Plasma samples were reanalyzed with a 1:1000 dilution from animals 6287, 6289, 6332, 6334, 6336, 6149, 6335, and 6337. Plasma samples close to the lower limit of quantification (LLOQ) were repeated with a 1:5 dilution from animals 6138 and 6137. […] Therefore, the data from animal 6138 and 6137 were not included in the final PK analysis. […] The area under the concentration curve (AUC) was calculated with the trapezoidal rules.

[5] = target: TNFα (Homo sapiens, UniProt P01375); test: LOCI competitive inhibition assay of adalimumab binding to TNFα after jet dispensing; conditions: delivery pressures up to 300 psi, nozzle diameter down to 0.35 mm
TNFα, sequence (P01375 77-233 limits assumed): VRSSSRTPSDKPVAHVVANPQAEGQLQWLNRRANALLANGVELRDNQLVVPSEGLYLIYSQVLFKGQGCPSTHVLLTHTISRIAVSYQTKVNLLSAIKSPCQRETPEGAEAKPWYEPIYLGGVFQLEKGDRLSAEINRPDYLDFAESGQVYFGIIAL
Description: The drug (adalimumab) was loaded into the ingestible device and fired through a nozzle with varying diameters at various pressure conditions.
FIGS. 57A-57B illustrate the general principle of the assay.
Drug binding was detected using Luminescent Oxygen Channeling (LOCI™)—a competitive binding assay. Signal was detected by comparing to a non-drug carrier control and an artificially damaged drug using a commercial FAB fragmentation kit.
Drug function was determined through a competition binding assay comparing drug binding function for drug dispensed via standard delivery mechanism and drug delivered via the ingestible device with various pressures.

[6] = Adalimumab plasma PK after ID administration via endoscopic injection needle; format: in vivo, female Yorkshire pigs (Sus scrofa domesticus); conditions: 5 pigs in two studies
Description: A total of 5 healthy female Yorkshire pigs (Sus scrofa domesticus) having a body weight of ˜25-40 kg were used in these studies, 3 in a first study and 2 in a second study. Each animal received test article via intraduodenal (ID) administration via an injection needle. The study design is shown below in Table 34.
Animals were housed one per cage and fasted for a minimum of 12 hours prior to dosing. Food was returned at 4 hours post-dose. Water was supplied ad libitum.
Intraduodenal (ID) administration was performed as follows. […] Once it was confirmed that the endoscopic injection needle was placed in the correct region, approximately 0.5 mL of saline was injected within the lamina propria of the mucosa to create a small bleb in the mucosa. The formulation was then injected into the bleb and flushed with approximately 0.8 mL of saline. […]
(§3) All plasma samples were diluted by 1:100 dilution. Diluted samples were processed in duplicates and the mean Optical Density (O.D.) was measured using a SpectraMax plate reader and utilizing SoftMax Pro software for analysis. The Lower Limit of Quantification (LLOQ) was calculated by adding 10× the standard deviation value of the blanks O.D. to the average of the blank standard O.D. values. […] The area under the concentration curve (AUC) was calculated with the trapezoidal rules.

[7] = Adalimumab plasma PK after ID administration via 4-nozzle jet delivery device; format: in vivo, female Yorkshire pigs (Sus scrofa domesticus); conditions: for AUC0-10 (±SEM) / Tmax: 40 mg, N=4, plasma; for AUC0-10 Corrected for Dose (±SEM): N=4; for Bioavailability over IV (±SEM): vs Example 5 IV control; for Bioavailability over IV (±SEM) / Bioavailability over SC (±SEM): AUC corrected for dose used; for Bioavailability over SC (±SEM): vs Example 5 SC control
Description: A total of 9 healthy female Yorkshire pigs (Sus scrofa domesticus) having a body weight of 24-30 kg were used in this study. […] Each dose group received test article via intraduodenal (ID) administration. The study design is shown below in Table 21.
Animals were housed two per cage and fasted for a minimum of 12 hours prior to dosing. Food was returned at 4 hours post-dose. Water was supplied ad libitum. The dosing was as follows: Dose day 1: group 1 (n=2), and group 2 (n=3); Dose day 2: group 2 (n=3), and group 1 (n=2).
Intraduodenal (ID) administration was performed as follows.
as §2
as §3, with “reader is” for “reader”
The PK results were compared to a subset of data from Example 5. The bioavailability was determined by comparison with Example 5 control arms (SC and IV administration).

[8] = pig, in vivo
[9] = SC administration, swine, group average
[10] = SC administration, swine, individual animals
[11] = Group 1: ID, 2 nozzle jet delivery device 220 PSIG, 40 mg, N=2, plasma
[12] = Group 3: ID, 2 Nozzle device 320 PSIG, N=5, data from Example 5
[13] = Group 3: ID, 2 Nozzle device 320 PSIG, data from Example 5
[14] = Group 3: ID, 2 nozzle jet delivery device 320 PSIG, 40 mg, N=5, plasma
[15] = Group 4: SC control, N=3, data from Example 5
[16] = Group 4: SC control, data from Example 5
[17] = Group 5: IV control, N=3, data from Example 5
[18] = Group 1: ID, 4 Nozzle device 320 PSIG
[19] = Group 2: ID, 4 Nozzle device 350 PSIG

Substance: NOVOLIN® R: regular human insulin (NOVOLIN® R)
- Cmax ([1]; Average of 8 animals): 77.40 uIU/mL
- Tmax ([1]; Average of 8 animals): 55.63 min
- Cmax ([1]; individual animal): 40.93 uIU/mL and 96.77 uIU/mL and 5.03 uIU/mL and 7.96 uIU/mL and 48.77 uIU/mL and 85.38 uIU/mL and 207.96 uIU/mL and 126.39 uIU/mL
- Tmax ([1]; individual animal): 20 min and 50 min and 90 min (2×) and 40 min (3×)
- blood insulin level in animal 18P18 ([1]; SC administration group, compared with rest of group): significantly higher than the rest of the animals in the group
- Cmax of blood insulin, Average [1, 9]: 202.94 uIU/mL
- Tmax of blood insulin, Average [1, 9]: 1.452 h
- Cmax of blood insulin [1, 10]: 451.00 uIU/mL and 60.74 uIU/mL and 354.00 uIU/mL and 356.60 uIU/mL and 65.71 uIU/mL and 59.18 uIU/mL and 73.34 uIU/mL
- Tmax of blood insulin [1, 10]: 50 min (2×) and 180 min and 105 min and 30 min and 120 min
- maximum plasma concentration Cmax, SC group compared with IJ group ([1]; SC versus IJ administration): higher than that of the IJ administration group
- time to maximum plasma concentration (Tmax) ([1]; jejunum (IJ) administration via jet delivery device, swine, group mean): 0.9272 h
- mean blood glucose level ([2]; IJ administration group): 89.6 mg/dL
- mean blood glucose level ([2]; SC administration group): 83.5 mg/dL
- mean dextrose infusion rate, IJ versus SC group ([2]; from 75 minutes to 420 minutes post-administration): higher in the SC administration group

Substance: adalimumab
- protein banding pattern, non-reducing SDS-PAGE ([3]; 5 μg per lane, jet-delivered samples versus unmanipulated drug and papain-degraded controls): same banding pattern as the unmanipulated drug
- structural changes after dispensing ([3]; dispensing pressures and nozzle sizes employed): No structural changes were evident
- Cmax [4, 11]: 570 ng/mL
- Tmax [4, 11]: 24 h
- Tmax ([4]; Group 2: ID, 2 nozzle jet delivery device 270 PSIG, 40 mg, N=4, plasma): 24 h
- AUC0-10 (±SEM) [4, 12]: 32.31 µg·days/mL
- AUC0-10 Corrected for Dose (±SEM) [4, 12]: 32.25 µg·days/mL
- Cmax [4, 12]: 5000 ng/mL
- Tmax [4, 12]: 24 h
- Bioavailability over IV (±SEM) [4, 13]: 26.25
- Bioavailability over SC (±SEM) [4, 13]: 35.38
- Cmax [4, 14]: 5000 ng/mL
- Tmax [4, 14]: 24 h
- AUC0-10 (±SEM) [4, 15]: 91.87 µg·days/mL
- Tmax [4, 15]: 140 h
- Bioavailability over IV (±SEM) [4, 16]: 74.89
- Bioavailability over SC (±SEM) [4, 16]: 100
- Tmax ([4]; Group 4: SC, 40 mg, N=3, plasma): 140 h
- Bioavailability over IV ([4]; Group 5: IV): 100%
- AUC0-10 (±SEM) [4, 17]: 122.67 µg·days/mL
- Tmax [4, 17]: 3.12 h
- Bioavailability over IV (±SEM) ([4]; Group 5: IV control, data from Example 5): 100
- Tmax ([4]; Group 5: IV, 40 mg, N=3, plasma): 3.12 h
- ability of the drug to bind to the target TNFα after jet delivery [5]: did not significantly inhibit the ability of the drug to bind to the target TNFα
- quantifiable levels in plasma [6]: one animal from the first study and one animal from the second study had quantifiable levels
- AUC0-10 (±SEM) [7, 18]: 23.831 µg·days/mL
- Tmax [7, 18]: 24 h
- AUC0-10 Corrected for Dose (±SEM) [7, 18]: 23.997 µg·days/mL
- Bioavailability over IV (±SEM) [7, 18]: 19.560
- Bioavailability over SC (±SEM) [7, 18]: 26.120
- AUC0-10 (±SEM) [7, 19]: 14.603 µg·days/mL
- Tmax [7, 19]: 24 h
- AUC0-10 Corrected for Dose (±SEM) [7, 19]: 15.171 µg·days/mL
- Bioavailability over IV (±SEM) [7, 19]: 12.367
- Bioavailability over SC (±SEM) [7, 19]: 16.513

Substance: dulaglutide: long-acting GLP-1 receptor agonist, GLP-1 analogue linked to modified human IgG4 Fc, about 63 kDa
- Bioavailability relative to IV [8]: 26.51%
- Bioavailability relative to SC [8]: 49.11%
- plasma level in one animal in Group 1 (no. 8487; ID) [8]: below the limit of detection
- (AUC)T0-T240 h ± SEM ([8]; 1.2 mg): 4355.86 ng·h/mL
- AUCID (mean ± SEM) ([8]; 1.2 mg): 3890.00 ± 94.73 ng·h/mL
- Cmax ([8]; 1.2 mg): 70.65 ng
- Tmax ([8]; 1.2 mg): 8 h
- Bioavailability relative to IV ([8]; iv): 100%
- (AUC)T0-T240 h ± SEM ([8]; iv, 1.2 mg): 16429.33 ng·h/mL
- Cmax ([8]; iv, 1.2 mg): 632.93 ng
- Tmax ([8]; iv, 1.2 mg): 1 h
- Bioavailability relative to SC ([8]; sc): 100%
- (AUC)T0-T240 h ± SEM ([8]; sc, 1.2 mg): 8869 ng·h/mL
- Cmax ([8]; sc, 1.2 mg): 141.3 ng
- Tmax ([8]; sc, 1.2 mg): 6 h

Source: patent US20240252795A1, “INGESTIBLE DEVICE FOR DELIVERY OF THERAPEUTIC AGENT TO THE GASTROINTESTINAL TRACT” (BIORA THERAPEUTICS, INC., priority 2018, published 2024)
